To fix the notation:
T1: StrepII-Bre1 (S. cerevisiae, UniProt Q07457 1-700)
T1 sequence (looked up): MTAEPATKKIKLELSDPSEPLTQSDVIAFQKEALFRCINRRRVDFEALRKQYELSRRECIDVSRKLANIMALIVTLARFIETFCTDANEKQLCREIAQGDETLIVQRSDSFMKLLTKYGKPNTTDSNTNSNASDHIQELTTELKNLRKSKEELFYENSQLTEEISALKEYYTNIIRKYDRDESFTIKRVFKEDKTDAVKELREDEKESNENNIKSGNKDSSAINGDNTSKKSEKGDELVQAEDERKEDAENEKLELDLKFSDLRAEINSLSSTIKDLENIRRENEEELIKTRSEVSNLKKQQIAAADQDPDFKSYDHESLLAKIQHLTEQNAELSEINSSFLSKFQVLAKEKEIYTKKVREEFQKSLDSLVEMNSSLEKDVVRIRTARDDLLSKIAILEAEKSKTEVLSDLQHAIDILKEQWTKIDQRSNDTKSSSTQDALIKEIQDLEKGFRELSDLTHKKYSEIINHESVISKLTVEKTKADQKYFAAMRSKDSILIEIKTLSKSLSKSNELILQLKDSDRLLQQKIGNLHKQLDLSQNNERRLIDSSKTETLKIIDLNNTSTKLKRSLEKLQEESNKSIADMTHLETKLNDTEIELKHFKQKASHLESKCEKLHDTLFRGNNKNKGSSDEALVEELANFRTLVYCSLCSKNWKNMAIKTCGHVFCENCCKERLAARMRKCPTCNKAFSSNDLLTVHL

T2: 6His-Lge1-StrepII (S. cerevisiae, UniProt Q02796 1-332)
T2 sequence (looked up): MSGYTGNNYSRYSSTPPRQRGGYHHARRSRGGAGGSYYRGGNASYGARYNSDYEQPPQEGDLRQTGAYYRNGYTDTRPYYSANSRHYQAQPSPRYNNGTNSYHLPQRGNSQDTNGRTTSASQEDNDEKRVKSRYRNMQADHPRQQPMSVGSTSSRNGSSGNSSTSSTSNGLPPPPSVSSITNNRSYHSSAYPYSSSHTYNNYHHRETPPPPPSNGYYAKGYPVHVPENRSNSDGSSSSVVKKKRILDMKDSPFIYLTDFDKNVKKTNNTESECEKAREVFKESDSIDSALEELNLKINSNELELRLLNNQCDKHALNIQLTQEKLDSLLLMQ

T3: StrepII-mGFP-Bre1 (S. cerevisiae, UniProt Q07457 1-700)
T3 sequence (looked up): T1 sequence (looked up)

B1: GST-Lge1 CC-StrepII (domain or fragment, S. cerevisiae, UniProt Q02796 243-332, looked up)
chain: KRILDMKDSPFIYLTDFDKNVKKTNNTESECEKAREVFKESDSIDSALEELNLKINSNELELRLLNNQCDKHALNIQLTQEKLDSLLLMQ
B2: StrepII-Bre1 Lge1 Binding Domain (residues 308-632) (domain or fragment, S. cerevisiae, UniProt Q07457 308-632, looked up)
chain: QDPDFKSYDHESLLAKIQHLTEQNAELSEINSSFLSKFQVLAKEKEIYTKKVREEFQKSLDSLVEMNSSLEKDVVRIRTARDDLLSKIAILEAEKSKTEVLSDLQHAIDILKEQWTKIDQRSNDTKSSSTQDALIKEIQDLEKGFRELSDLTHKKYSEIINHESVISKLTVEKTKADQKYFAAMRSKDSILIEIKTLSKSLSKSNELILQLKDSDRLLQQKIGNLHKQLDLSQNNERRLIDSSKTETLKIIDLNNTSTKLKRSLEKLQEESNKSIADMTHLETKLNDTEIELKHFKQKASHLESKCEKLHDTLFRGNNKNKGSSD
B3: StrepII-mGFP-Bre1 LBD (domain or fragment, S. cerevisiae, UniProt Q07457 308-632, looked up)
chain: B2 chain
B4: Pacific Blue-labelled 6His-TEV-Rad6 (enzyme, S. cerevisiae, UniProt P06104 1-172, looked up)
chain: MSTPARRRLMRDFKRMKEDAPPGVSASPLPDNVMVWNAMIIGPADTPYEDGTFRLLLEFDEEYPNKPPHVKFLSEMFHPNVYANGEICLDILQNRWTPTYDVASILTSIQSLFNDPNPASPANVEAATLFKDHKSQYVKRVKETVEKSWEDDMDDMDDDDDDDDDDDDDEAD
modifications: Pacific Blue C5-Maleimide label
B5: GST-Lge1 IDR-StrepII (domain or fragment, S. cerevisiae, UniProt Q02796 1-242, looked up)
chain: MSGYTGNNYSRYSSTPPRQRGGYHHARRSRGGAGGSYYRGGNASYGARYNSDYEQPPQEGDLRQTGAYYRNGYTDTRPYYSANSRHYQAQPSPRYNNGTNSYHLPQRGNSQDTNGRTTSASQEDNDEKRVKSRYRNMQADHPRQQPMSVGSTSSRNGSSGNSSTSSTSNGLPPPPSVSSITNNRSYHSSAYPYSSSHTYNNYHHRETPPPPPSNGYYAKGYPVHVPENRSNSDGSSSSVVKK
B6: GST-Lge1-StrepII (natural protein, S. cerevisiae, UniProt Q02796 1-332, looked up)
chain: T2 sequence (looked up)

One data set concerns the target T1, StrepII-Bre1. The experiment in a line: pull-down.
The data set “GST-Lge1-StrepII” deals with B6. The experiment in a line: pull-down.
In the next data set the target is T2, 6His-Lge1-StrepII. The experiment in a line: recruitment to reconstituted condensates.
The target in another data set is T3, StrepII-mGFP-Bre1. The experiment in a line: recruitment to reconstituted condensates.
The data set “co-sedimentation” deals with the molecule itself. The experiment in a line: co-sedimentation.

Regarding B1, the binding result with StrepII-Bre1 is given as “binds”.

Turning to B2, in the data set with GST-Lge1-StrepII, the binding result was “binds”.

In the case of B3, in the data set with 6His-Lge1-StrepII, the binding result was “binds”.

Consider B4, for which the binding result with StrepII-mGFP-Bre1 was “binds”.

Take B5: in the data set “co-sedimentation”, the binding result is “binds”.

Turning to B6, in the data set with StrepII-Bre1, the binding result is “binds”.

For the origin of these results see paper PMC7481934 (Nature, 2020).
